This note sets out measurements from patent US7045613B2, “IKK-αproteins, nucleic acids and methods” (Amgen, Inc., priority 1997, dated 2006).

In experiment [1] the test system is NF-κB-dependent reporter gene. Briefly: NF-κB-dependent reporter gene assay, 293 cells. The experiment is classed as cell-based, human. Conditions: overexpression in 293 cells. From the text:
(§1) To investigate a possible role for IKK-α in NF-κB activation, we examined if transient overexpression of IKK-α might activate an NF-κB-dependent reporter gene. An E-selectin-luciferase reporter construct (Schindler and Baichwal, 1994) and a IKK-α expression vector were cotransfected into HeLa cells. IKK-α expression activated the reporter gene in a dose-dependent manner, with a maximal induction of luciferase activity of about 6 to 7-fold compared to vector control. Similar results were obtained in 293 cells, where IKK-α overexpression induced reporter gene activity approximately 4-fold. […] Thus, IKK-α induces NF-κB activation when overexpressed.
Overexpression of IKK-α(307-745) blocked TNF- and IL-1-induced reporter gene activation similar to overexpression of NIK(624-947). IKK-α(307-745) was also found to inhibited NF-κB-dependent reporter gene activity elicited by overexpression of TRAF2, TRAF6 and NIK.
(A reporter such as luciferase makes a cellular process visible.)

A further experiment concerns the target T1, TRAF3 (Homo sapiens, UniProt Q13114).
T1 construct: expressed in transfected cells; host or cells: 293 human embryonic kidney cells
T1 sequence (Q13114 1-568): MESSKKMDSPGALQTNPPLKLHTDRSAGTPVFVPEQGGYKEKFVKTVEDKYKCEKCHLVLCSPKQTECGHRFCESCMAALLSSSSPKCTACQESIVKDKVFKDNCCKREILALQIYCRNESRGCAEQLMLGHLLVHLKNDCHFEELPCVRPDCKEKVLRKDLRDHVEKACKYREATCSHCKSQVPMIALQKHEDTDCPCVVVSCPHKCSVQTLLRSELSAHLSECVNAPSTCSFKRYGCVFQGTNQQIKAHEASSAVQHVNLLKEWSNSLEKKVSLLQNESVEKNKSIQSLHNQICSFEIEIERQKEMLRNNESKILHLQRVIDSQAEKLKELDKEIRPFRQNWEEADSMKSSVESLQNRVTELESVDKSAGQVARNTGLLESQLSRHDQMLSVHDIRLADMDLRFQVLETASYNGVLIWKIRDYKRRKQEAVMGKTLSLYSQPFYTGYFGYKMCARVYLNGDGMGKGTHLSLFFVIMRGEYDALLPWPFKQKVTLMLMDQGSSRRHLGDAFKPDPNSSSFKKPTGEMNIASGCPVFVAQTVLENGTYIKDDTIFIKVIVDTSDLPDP
Briefly: Coimmunoprecipitation with HA-tagged TRAF3 in 293 cells. Conditions: Flag-tagged protein coexpressed with HA-TRAF3. The experiment is classed as binding. From the text: (§2) The interaction of IKK-α with NIK was confirmed in mammalian cell coimmunoprecipitation assays. Human IKK-α containing an N-terminal Flag epitope tag was transiently coexpressed in 293 human embryonic kidney cells with Myc epitope-tagged NIK or HA epitope-tagged TRAF proteins. Cell lysates were immunoprecipitated using a monoclonal antibody against the Flag epitope, and coprecipitating NIK or TRAF proteins were detected by immunoblot analysis with an anti-Myc or anti-HA monoclonal antibodies.

The target of another experiment is T2, NIK (Homo sapiens, UniProt Q99558).
T2 construct: expressed in transfected cells; host or cells: 293 human embryonic kidney cells
Briefly: Coimmunoprecipitation with Myc-tagged NIK in 293 cells. The experiment is classed as binding. Conditions: Flag-tagged protein coexpressed with Myc-NIK, anti-Flag immunoprecipitation.
From the text: as §2

In the next experiment the test system is TRAF2. Briefly: Coimmunoprecipitation with HA-tagged TRAF2 in 293 cells. Type of experiment: binding, human.
From the text: as §2

Experiment [2] relates to NF-κB-dependent reporter gene. Briefly: E-selectin-luciferase NF-κB-dependent reporter gene assay, HeLa cells. Type of experiment: cell-based, human. As to conditions: transient overexpression in HeLa cells, compared to vector control.
From the text: as §1

T2 sequence (Q99558 whole entry): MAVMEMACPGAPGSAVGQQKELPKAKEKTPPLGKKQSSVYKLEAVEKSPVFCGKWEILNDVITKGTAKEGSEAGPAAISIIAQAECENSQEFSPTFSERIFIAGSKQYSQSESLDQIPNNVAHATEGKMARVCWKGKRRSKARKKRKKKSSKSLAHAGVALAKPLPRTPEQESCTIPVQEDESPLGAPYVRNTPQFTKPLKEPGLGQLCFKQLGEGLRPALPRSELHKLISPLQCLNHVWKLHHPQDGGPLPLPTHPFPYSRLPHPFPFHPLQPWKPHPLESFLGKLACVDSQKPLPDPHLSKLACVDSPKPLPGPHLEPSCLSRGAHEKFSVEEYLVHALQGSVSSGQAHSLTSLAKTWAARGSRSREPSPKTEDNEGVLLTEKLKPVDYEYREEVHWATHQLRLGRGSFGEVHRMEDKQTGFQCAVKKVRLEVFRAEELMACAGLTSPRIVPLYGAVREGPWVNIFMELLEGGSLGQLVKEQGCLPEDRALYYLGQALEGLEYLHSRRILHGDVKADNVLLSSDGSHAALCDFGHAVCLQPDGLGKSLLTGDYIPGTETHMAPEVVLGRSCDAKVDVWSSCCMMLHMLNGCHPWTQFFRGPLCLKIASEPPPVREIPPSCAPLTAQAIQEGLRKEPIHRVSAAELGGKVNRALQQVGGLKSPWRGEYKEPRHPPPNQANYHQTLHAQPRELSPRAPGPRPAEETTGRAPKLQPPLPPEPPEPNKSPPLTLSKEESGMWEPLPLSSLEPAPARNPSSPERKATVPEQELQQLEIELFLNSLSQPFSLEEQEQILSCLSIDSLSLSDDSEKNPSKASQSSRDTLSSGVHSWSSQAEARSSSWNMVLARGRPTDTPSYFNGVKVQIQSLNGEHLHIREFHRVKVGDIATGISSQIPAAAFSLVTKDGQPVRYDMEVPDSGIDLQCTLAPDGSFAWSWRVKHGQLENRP

B1: NIK(624-947): kinase-inactive mutant of NIK comprising its TRAF2-interacting C-terminal domain (protein, UniProt Q99558 624-947, looked up, fragment)
chain: PLTAQAIQEGLRKEPIHRVSAAELGGKVNRALQQVGGLKSPWRGEYKEPRHPPPNQANYHQTLHAQPRELSPRAPGPRPAEETTGRAPKLQPPLPPEPPEPNKSPPLTLSKEESGMWEPLPLSSLEPAPARNPSSPERKATVPEQELQQLEIELFLNSLSQPFSLEEQEQILSCLSIDSLSLSDDSEKNPSKASQSSRDTLSSGVHSWSSQAEARSSSWNMVLARGRPTDTPSYFNGVKVQIQSLNGEHLHIREFHRVKVGDIATGISSQIPAAAFSLVTKDGQPVRYDMEVPDSGIDLQCTLAPDGSFAWSWRVKHGQLENRP
Regarding B1, in experiment [1], the “TNF- and IL-1-induced reporter gene activation” value was “blocked”.

B2: IKK-α: novel human IκB kinase, full conceptual translate SEQ ID NO:4 (protein)
chain: MERPPGLRPGAGGPWEMRERLGTGGFGNVCLYQHRELDLKIAIKSCRLELSTKNRERWCHEIQIMKKLNHANVVKACDVPEELNILIHDVPLLAMEYCSGGDLRKLLNKPENCCGLKESQILSLLSDIGSGIRYLHENKIIHRDLKPENIVLQDVGGKIIHKIIDLGYAKDVDQGSLCTSFVGTLQYLAPELFENKPYTATVDYWSFGTMVFECIAGYRPFLHHLQPFTWHEKIKKKDPKCIFACEEMSGEVRFSSHLPQPNSLCSLIVEPMENWLQLMLNWDPQQRGGPVDLTLKQPRCFVLMDHILNLKIVHILNMTSAKIISFLLPPDESLHSLQSRIERETGINTGSQELLSETGISLDPRKPASQCVLDGVRGCDSYMVYLFDKSKTVYEGPFASRSLSDCVNYIVQDSKIQLPIIQLRKVWAEAVHYVSGLKEDYSRLFQGQRAAMLSLLRYNANLTKMKNTLISASQQLKAKLEFFHKSIQLDLERYSEQMTYGISSEKMLKAWKEMEEKAIHYAEVGVIGYLEDQIMSLHAEIMELQKSPYGRRQGDLMESLEQRAIDLYKQLKHRPSDHSYSDSTEMVKIIVHTVQSQDRVLKELFGHLSKLLGCKQKIIDLLPKVEVALSNIKEADNTVMFMQGKRQKEIWHLLKIACTQSSARSLVGSSLEGAVTPQTSAWLPPTSAEHDHSLSCVVTPQDGETSAQMIEENLNCLGHLSTIIHEANEEQGNSMMNLDWSWLTE
With B2, in the experiment with TRAF3, the “association with TRAF3” value was “failed to associate”. For the same molecule, in the experiment with NIK, the “coprecipitation / association with NIK” value was “able to coprecipitate NIK”. Also, the “association with TRAF2” value in the experiment with TRAF2 (Flag-tagged protein coexpressed with HA-TRAF2, without NIK) is listed as “failed to associate”. Moreover, the “coprecipitation of TRAF2 when NIK coexpressed” value in the experiment on TRAF2 (NIK coexpressed with IKK-α and TRAF2) is reported as “strong coprecipitation”. Also, the “induced reporter gene activity” value in experiment [1] is “approximately 4 fold”. Also, in experiment [2], the “maximal induction of luciferase activity” value was in the range of 6 to 7 fold.

B3: IKK-α(307-745): deletion mutant IKK-α protein lacking most of the N-terminal kinase domain; kinase-inactive (protein)
chain: ILNLKIVHILNMTSAKIISFLLPPDESLHSLQSRIERETGINTGSQELLSETGISLDPRKPASQCVLDGVRGCDSYMVYLFDKSKTVYEGPFASRSLSDCVNYIVQDSKIQLPIIQLRKVWAEAVHYVSGLKEDYSRLFQGQRAAMLSLLRYNANLTKMKNTLISASQQLKAKLEFFHKSIQLDLERYSEQMTYGISSEKMLKAWKEMEEKAIHYAEVGVIGYLEDQIMSLHAEIMELQKSPYGRRQGDLMESLEQRAIDLYKQLKHRPSDHSYSDSTEMVKIIVHTVQSQDRVLKELFGHLSKLLGCKQKIIDLLPKVEVALSNIKEADNTVMFMQGKRQKEIWHLLKIACTQSSARSLVGSSLEGAVTPQTSAWLPPTSAEHDHSLSCVVTPQDGETSAQMIEENLNCLGHLSTIIHEANEEQGNSMMNLDWSWLTE
For the molecule B3, the “coprecipitation / association with NIK” value with NIK is “able to associate with NIK”. In addition, in experiment [1], the “NF-κB-dependent reporter gene activity elicited by overexpression of TRAF2, TRAF6 and NIK” value is “inhibited”; the “TNF- and IL-1-induced reporter gene activation” value is reported as “blocked”.
